Patent US20200299408A1 (Genentech, published 2020)

Target: T1, cyCD3εγ (cynomolgus monkey)
T1 chain 1: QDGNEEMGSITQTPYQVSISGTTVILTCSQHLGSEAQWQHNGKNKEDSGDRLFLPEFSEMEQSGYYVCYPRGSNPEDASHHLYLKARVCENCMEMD
T1 chain 2: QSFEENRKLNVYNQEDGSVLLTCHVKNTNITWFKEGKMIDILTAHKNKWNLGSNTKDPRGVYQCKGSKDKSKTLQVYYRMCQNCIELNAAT
Assay: monovalent binding affinity, method not stated on the sheet

Kd: 0.7 nM
B1: hu38E4.v1 Fab (Fab, V domains shown)
VH: EVQLVQSGAEVKKPGASVKVSCKASGFTFTSYYIHWVRQAPGQGLEWIGWIYPENDNTKYNEKFKDRVTITADTSTSTAYLELSSLRSEDTAVYYCARDGYSRYYFDYWGQGTLVTVSS
VL: DIVMTQSPDSLAVSLGERATINCKSSQSLLNSRTRKNYLAWYQQKPGQSPKLLIYWTSTRKSGVPDRFSGSGSGTDFTLTISSLQAEDVAVYYCKQSFILRTFGQGTKVEIK
notes: Humanized anti-CD3 Fab; Point mutants of it were expressed as Fabs in HEK293 cells
